Tested on: mouse J774E cells
Test: Internalization (uptake) of glucocerebrosidase into J774E macrophage cells, with or without mannan
Format: cell-based
Conditions: for Glucocerebrosidase Activity, Absolute / Glucocerebrosidase Activity, Background Corrected / uptake of GA-GCB over background: GA-GCB 10 μg/mL; for Glucocerebrosidase Activity, Absolute: 4 hours at 37° C.; for Glucocerebrosidase Activity, Background Corrected / uptake of GA-GCB over background: 4 hours; for Inhibition (%) of uptake by mannan: mannan 2 μg/mL, competitor for the mannose receptor
Experimental: GA-GCB produced in HT-1080 cells was used in an in vitro assay to determine uptake efficiency in a mouse macrophage cell line. The specific objective of the experiment was to determine the absolute and mannose receptor-specific uptake of GA-GCB in mouse J774E cells. One day prior to assay, J774E cells were plated at 50,000 cells/cm^2 in 12 well plates in Growth Medium. For the assay, 0.5 mL of Production Medium (DMEM/F12), 0% calf serum) containing 50 nM vitamin D3 (1,2-5, Dihydroxy vitamin D3) was added to the cells. Unpurified GA-GCB (from harvest 4, Table 1) was added to the test wells at a final concentration of 10 μg/mL in the presence or absence of 2 μg/mL mannan (a competitor for the mannose receptor). Three different forms of GA-GCB were used: GA-GCB from cells treated with kifunensine (1 μg/mL), GA-GCB from cells treated with swainsonine (1 μg/mL), and GA-GCB (1 μg/mL) from untreated cells. Control wells received no GA-GCB. The wells were incubated for 4 hours at 37° C., then washed extensively in buffered saline, scraped into GA-GCB enzyme reaction buffer, passed through 2 freeze/thaw cycles, and clarified by centrifugation. The supernantant was then quantitatively tested for enzyme activity and total protein. Internalization of GA-GCB into mouse J744E cells is shown in Table 2 and is reported as Units/mg of cell lysate. […] Thus, the inhibition of intracellular mannosidases by either kifunensine or swainsonine results in GA-GCB that can be transported into cells efficiently via the mannose receptor, with kifunensine causing an approximately 2-fold greater uptake than swainsonine. Improvement in targeting of GA-GCB to cells via mannose receptors can therefore be optimized by production of GA-GCB in the presence of kifunensine or swainsonine.

B1: GA-GCB from kifunensine treated cells: unpurified gene-activated glucocerebrosidase from HT-1080 cells treated with kifunensine (1 μg/mL) (protein)
chain: ARPCIPKSFGYSSVVCVCNATYCDSFDPPTFPALGTFSRYESTRSGRRMELSMGPIQANHTGTGLLLTLQPEQKFQKVKGFGGAMTDAAALNILALSPPAQNLLLKSYFSEEGIGYNIIRVPMASCDFSIRTYTYADTPDDFQLHNFSLPEEDTKLKIPLIHRALQLAQRPVSLLASPWTSPTWLKTNGAVNGKGSLKGQPGDIYHQTWARYFVKFLDAYAEHKLQFWAVTAENEPSAGLLSGYPFQCLGFTPEHQRDFIARDLGPTLANSTHHNVRLLMLDDQRLLLPHWAKVVLTDPEAAKYVHGIAVHWYLDFLAPAKATLGETHRLFPNTMLFASEACVGSKFWEQSVRLGSWDRGMQYSHSIITNLLYHVVGWTDWNLALNPEGGPNWVRNFVDSPIIVDITKDTFYKQPMFYHLGHFSKFIPEGSQRVGLVASQKNDLDAVALMHPDGSAVVVVLNRSSKDVPLTIKDPAVGFLETISPGYSIHTYLWRRQ
For B1, the “Glucocerebrosidase Activity, Absolute” value (+ mannan 2 μg/mL) was 2977 Units/mg cell lysate, the “Glucocerebrosidase Activity, Absolute” value (without mannan) was 9185 Units/mg cell lysate and the “Glucocerebrosidase Activity, Background Corrected” value (+ mannan 2 μg/mL) was 2322 Units/mg cell lysate. The “Glucocerebrosidase Activity, Background Corrected” value (without mannan) was 8530 Units/mg cell lysate, the “uptake of GA-GCB over background” value (without mannan) was 14 fold and the “Inhibition (%) of uptake by mannan” value was 73%.

B2: hmGCB: glucocerebrosidase having at least one carbohydrate chain having four or more mannose residues from a precursor oligosaccharide (protein)
chain: ARPCIPKSFGYSSVVCVCNATYCDSFDPPTFPALGTFSRYESTRSGRRMELSMGPIQANHTGTGLLLTLQPEQKFQKVKGFGGAMTDAAALNILALSPPAQNLLLKSYFSEEGIGYNIIRVPMASCDFSIRTYTYADTPDDFQLHNFSLPEEDTKLKIPLIHRALQLAQRPVSLLASPWTSPTWLKTNGAVNGKGSLKGQPGDIYHQTWARYFVKFLDAYAEHKLQFWAVTAENEPSAGLLSGYPFQCLGFTPEHQRDFIARDLGPTLANSTHHNVRLLMLDDQRLLLPHWAKVVLTDPEAAKYVHGIAVHWYLDFLAPAKATLGETHRLFPNTMLFASEACVGSKFWEQSVRLGSWDRGMQYSHSIITNLLYHVVGWTDWNLALNPEGGPNWVRNFVDSPIIVDITKDTFYKQPMFYHLGHFSKFIPEGSQRVGLVASQKNDLDAVALMHPDGSAVVVVLNRSSKDVPLTIKDPAVGFLETISPGYSIHTYLWRRQ
With B2 the “hmGCB uptake by macrophages compared to uptake of GCB secreted from cells” value (summary statement) was “increased”.

B3: GA-GCB from swainsonine treated cells: unpurified gene-activated glucocerebrosidase from HT-1080 cells treated with swainsonine (1 μg/mL) (protein)
chain: ARPCIPKSFGYSSVVCVCNATYCDSFDPPTFPALGTFSRYESTRSGRRMELSMGPIQANHTGTGLLLTLQPEQKFQKVKGFGGAMTDAAALNILALSPPAQNLLLKSYFSEEGIGYNIIRVPMASCDFSIRTYTYADTPDDFQLHNFSLPEEDTKLKIPLIHRALQLAQRPVSLLASPWTSPTWLKTNGAVNGKGSLKGQPGDIYHQTWARYFVKFLDAYAEHKLQFWAVTAENEPSAGLLSGYPFQCLGFTPEHQRDFIARDLGPTLANSTHHNVRLLMLDDQRLLLPHWAKVVLTDPEAAKYVHGIAVHWYLDFLAPAKATLGETHRLFPNTMLFASEACVGSKFWEQSVRLGSWDRGMQYSHSIITNLLYHVVGWTDWNLALNPEGGPNWVRNFVDSPIIVDITKDTFYKQPMFYHLGHFSKFIPEGSQRVGLVASQKNDLDAVALMHPDGSAVVVVLNRSSKDVPLTIKDPAVGFLETISPGYSIHTYLWRRQ
With B3 the “Glucocerebrosidase Activity, Absolute” value (+ mannan 2 μg/mL) was 2036 Units/mg cell lysate, the “Glucocerebrosidase Activity, Absolute” value (without mannan) was 4787 Units/mg cell lysate and the “Glucocerebrosidase Activity, Background Corrected” value (+ mannan 2 μg/mL) was 1381 Units/mg cell lysate. The “Glucocerebrosidase Activity, Background Corrected” value (without mannan) was 4132 Units/mg cell lysate, the “uptake of GA-GCB over background” value (without mannan) was 7 fold and the “Inhibition (%) of uptake by mannan” value was 67%.

B4: GA-GCB from untreated cells: unpurified gene-activated glucocerebrosidase from HT-1080 cells without drug treatment (protein)
chain: ARPCIPKSFGYSSVVCVCNATYCDSFDPPTFPALGTFSRYESTRSGRRMELSMGPIQANHTGTGLLLTLQPEQKFQKVKGFGGAMTDAAALNILALSPPAQNLLLKSYFSEEGIGYNIIRVPMASCDFSIRTYTYADTPDDFQLHNFSLPEEDTKLKIPLIHRALQLAQRPVSLLASPWTSPTWLKTNGAVNGKGSLKGQPGDIYHQTWARYFVKFLDAYAEHKLQFWAVTAENEPSAGLLSGYPFQCLGFTPEHQRDFIARDLGPTLANSTHHNVRLLMLDDQRLLLPHWAKVVLTDPEAAKYVHGIAVHWYLDFLAPAKATLGETHRLFPNTMLFASEACVGSKFWEQSVRLGSWDRGMQYSHSIITNLLYHVVGWTDWNLALNPEGGPNWVRNFVDSPIIVDITKDTFYKQPMFYHLGHFSKFIPEGSQRVGLVASQKNDLDAVALMHPDGSAVVVVLNRSSKDVPLTIKDPAVGFLETISPGYSIHTYLWRRQ
With B4 the “Glucocerebrosidase Activity, Absolute” value (+ mannan 2 μg/mL) was 1678 Units/mg cell lysate, the “Glucocerebrosidase Activity, Absolute” value (without mannan) was 2816 Units/mg cell lysate and the “Glucocerebrosidase Activity, Background Corrected” value (+ mannan 2 μg/mL) was 1023 Units/mg cell lysate. For the same molecule, the “Glucocerebrosidase Activity, Background Corrected” value (without mannan) was 2161 Units/mg cell lysate, the “uptake of GA-GCB over background” value (without mannan) was “approximately 3 fold” and the “Inhibition (%) of uptake by mannan” value was 53%.
